# Legend:
# [1] = tested on: Escherichia coli; experiment: Antimicrobial activity Escherichia coli DH5alpha harboring bacteriophage T4 plasmid alpha omega by agar macrodilution method; format: functional
# [2] = tested on: Pseudomonas aeruginosa; experiment: Ratio of Kcat to Km for Pseudomonas aeruginosa COL-1 metallo-beta lactamase VIM-2 over Kcat to Km for Pseudomonas aeruginosa M5109 metallo-beta-lactamase VIM-11
# [3] = tested on: Escherichia coli; experiment: Antimicrobial activity Escherichia coli DH5alpha expressing beta lactamase VIM-2 by agar macrodilution method; format: functional
# [4] = tested on: Escherichia coli; experiment: Antimicrobial activity Escherichia coli DH5alpha expressing metallo-beta-lactamase VIM-11 by agar macrodilution method; format: functional
# [5] = target: Metallo-beta-lactamase (Escherichia coli) (UniProt Q5U7L7); experiment: Activity at Escherichia coli DH5alpha metallo-beta-lactamase VIM-2 assessed as compound hydrolysis per mg of total periplasmic protein by spectrometry
# [6] = tested on: Escherichia coli; experiment: Activity at Escherichia coli DH5alpha metallo-beta-lactamase VIM-11 assessed as compound hydrolysis per mg of total periplasmic protein by spectrometry
# [7] = tested on: CC1(C)S[C@@H]2[C@H](NC(=O)[C@H](N)c3ccccc3)C(=O)N2[C@H]1C(=O)O; experiment: (§1) Ratio of Kcat to Km for Pseudomonas aeruginosa M5109 metallo-beta-lactamase VIM-11
# [8] = tested on: CO/N=C(\C(=O)N[C@@H]1C(=O)N2C(C(=O)O)=C(COC(N)=O)CS[C@H]12)c1ccco1; experiment: as §1
# [9] = tested on: CO/N=C(\C(=O)N[C@@H]1C(=O)N2C(C(=O)[O-])=C(C[n+]3cccc4c3CCC4)CS[C@H]12)c1csc(N)n1; experiment: as §1
# [10] = tested on: O=C(Cc1cccs1)N[C@@H]1C(=O)N2C(C(=O)O)=C(/C=C/c3ccc([N+](=O)[O-])cc3[N+](=O)[O-])CS[C@H]12; experiment: as §1
# [11] = tested on: CO[C@@]1(NC(=O)Cc2cccs2)C(=O)N2C(C(=O)O)=C(COC(N)=O)CS[C@@H]21; experiment: as §1
# [12] = tested on: CC(=O)OCC1=C(C(=O)O)N2C(=O)[C@@H](NC(=O)Cc3cccs3)[C@H]2SC1; experiment: as §1
# [13] = tested on: CO/N=C(\C(=O)N[C@@H]1C(=O)N2C(C(=O)O)=C(COC(C)=O)CS[C@H]12)c1csc(N)n1; experiment: as §1
# [14] = tested on: CC(C)(O/N=C(\C(=O)N[C@@H]1C(=O)N2C(C(=O)[O-])=C(C[n+]3ccccc3)CS[C@H]12)c1csc(N)n1)C(=O)O; experiment: as §1
# [15] = tested on: C[C@@H](O)[C@H]1C(=O)N2C(C(=O)O)=C(S[C@@H]3CN[C@H](C(=O)N(C)C)C3)[C@H](C)[C@H]12; experiment: as §1
# [16] = tested on: CC1(C)S[C@@H]2[C@H](NC(=O)[C@H](N)c3ccccc3)C(=O)N2[C@H]1C(=O)O; experiment: (§2) Activity at Pseudomonas aeruginosa M5109 metallo-beta-lactamase VIM-11 by spectrometry
# [17] = tested on: CO/N=C(\C(=O)N[C@@H]1C(=O)N2C(C(=O)O)=C(COC(N)=O)CS[C@H]12)c1ccco1; experiment: as §2
# [18] = tested on: CO/N=C(\C(=O)N[C@@H]1C(=O)N2C(C(=O)[O-])=C(C[n+]3cccc4c3CCC4)CS[C@H]12)c1csc(N)n1; experiment: as §2
# [19] = tested on: O=C(Cc1cccs1)N[C@@H]1C(=O)N2C(C(=O)O)=C(/C=C/c3ccc([N+](=O)[O-])cc3[N+](=O)[O-])CS[C@H]12; experiment: as §2
# [20] = tested on: CO[C@@]1(NC(=O)Cc2cccs2)C(=O)N2C(C(=O)O)=C(COC(N)=O)CS[C@@H]21; experiment: as §2
# [21] = tested on: CC(=O)OCC1=C(C(=O)O)N2C(=O)[C@@H](NC(=O)Cc3cccs3)[C@H]2SC1; experiment: as §2
# [22] = tested on: CO/N=C(\C(=O)N[C@@H]1C(=O)N2C(C(=O)O)=C(COC(C)=O)CS[C@H]12)c1csc(N)n1; experiment: as §2
# [23] = tested on: CC(C)(O/N=C(\C(=O)N[C@@H]1C(=O)N2C(C(=O)[O-])=C(C[n+]3ccccc3)CS[C@H]12)c1csc(N)n1)C(=O)O; experiment: as §2
# [24] = tested on: C[C@@H](O)[C@H]1C(=O)N2C(C(=O)O)=C(S[C@@H]3CN[C@H](C(=O)N(C)C)C3)[C@H](C)[C@H]12; experiment: as §2
# [25] = tested on: CC1(C)S[C@@H]2[C@H](NC(=O)[C@H](N)c3ccccc3)C(=O)N2[C@H]1C(=O)O; experiment: (§3) Ratio of Kcat to Km for Pseudomonas aeruginosa COL-1 metallo-beta lactamase VIM-2
# [26] = tested on: CO/N=C(\C(=O)N[C@@H]1C(=O)N2C(C(=O)O)=C(COC(N)=O)CS[C@H]12)c1ccco1; experiment: as §3
# [27] = tested on: O=C(Cc1cccs1)N[C@@H]1C(=O)N2C(C(=O)O)=C(/C=C/c3ccc([N+](=O)[O-])cc3[N+](=O)[O-])CS[C@H]12; experiment: as §3
# [28] = tested on: CO[C@@]1(NC(=O)Cc2cccs2)C(=O)N2C(C(=O)O)=C(COC(N)=O)CS[C@@H]21; experiment: as §3
# [29] = tested on: CC(=O)OCC1=C(C(=O)O)N2C(=O)[C@@H](NC(=O)Cc3cccs3)[C@H]2SC1; experiment: as §3
# [30] = tested on: CO/N=C(\C(=O)N[C@@H]1C(=O)N2C(C(=O)O)=C(COC(C)=O)CS[C@H]12)c1csc(N)n1; experiment: as §3
# [31] = tested on: CC(C)(O/N=C(\C(=O)N[C@@H]1C(=O)N2C(C(=O)[O-])=C(C[n+]3ccccc3)CS[C@H]12)c1csc(N)n1)C(=O)O; experiment: as §3
# [32] = tested on: C[C@@H](O)[C@H]1C(=O)N2C(C(=O)O)=C(S[C@@H]3CN[C@H](C(=O)N(C)C)C3)[C@H](C)[C@H]12; experiment: as §3
# [33] = tested on: CC1(C)S[C@@H]2[C@H](NC(=O)[C@H](N)c3ccccc3)C(=O)N2[C@H]1C(=O)O; experiment: (§4) Activity at Pseudomonas aeruginosa COL-1 metallo-beta lactamase VIM-2 by spectrometry
# [34] = tested on: CO/N=C(\C(=O)N[C@@H]1C(=O)N2C(C(=O)O)=C(COC(N)=O)CS[C@H]12)c1ccco1; experiment: as §4
# [35] = tested on: CO/N=C(\C(=O)N[C@@H]1C(=O)N2C(C(=O)[O-])=C(C[n+]3cccc4c3CCC4)CS[C@H]12)c1csc(N)n1; experiment: as §4
# [36] = tested on: O=C(Cc1cccs1)N[C@@H]1C(=O)N2C(C(=O)O)=C(/C=C/c3ccc([N+](=O)[O-])cc3[N+](=O)[O-])CS[C@H]12; experiment: as §4
# [37] = tested on: CO[C@@]1(NC(=O)Cc2cccs2)C(=O)N2C(C(=O)O)=C(COC(N)=O)CS[C@@H]21; experiment: as §4
# [38] = tested on: CC(=O)OCC1=C(C(=O)O)N2C(=O)[C@@H](NC(=O)Cc3cccs3)[C@H]2SC1; experiment: as §4
# [39] = tested on: CO/N=C(\C(=O)N[C@@H]1C(=O)N2C(C(=O)O)=C(COC(C)=O)CS[C@H]12)c1csc(N)n1; experiment: as §4
# [40] = tested on: CC(C)(O/N=C(\C(=O)N[C@@H]1C(=O)N2C(C(=O)[O-])=C(C[n+]3ccccc3)CS[C@H]12)c1csc(N)n1)C(=O)O; experiment: as §4
# [41] = tested on: C[C@@H](O)[C@H]1C(=O)N2C(C(=O)O)=C(S[C@@H]3CN[C@H](C(=O)N(C)C)C3)[C@H](C)[C@H]12; experiment: as §4
compound,measurement,setting,value
CC1(C)S[C@@H]2[C@H](NC(=O)[C@H](N)c3ccccc3)C(=O)N2[C@H]1C(=O)O [AMPICILLIN],MIC,[1],8 µg/mL
same,kcat/Km ratio,[2],0.81
same,MIC,[3],256 µg/mL
same,MIC,[4],64 µg/mL
O=C(Cc1cccs1)N[C@@H]1C(=O)N2C(C(=O)O)=C(/C=C/c3ccc([N+](=O)[O-])cc3[N+](=O)[O-])CS[C@H]12,kcat/Km ratio,[2],1.06
CO/N=C(\C(=O)N[C@@H]1C(=O)N2C(C(=O)O)=C(COC(C)=O)CS[C@H]12)c1csc(N)n1 [CEFOTAXIME],MIC,[1],0.03 µg/mL
same,kcat/Km ratio,[2],0.78
same,MIC,[3],8 µg/mL
same,MIC,[4],4 µg/mL
C[C@@H](O)[C@H]1C(=O)N2C(C(=O)O)=C(SCCNC=N)C[C@H]12 [IMIPENEM ANHYDROUS],Activity,[5],27 µmol
same,kcat/Km ratio,[2],0.67
same,MIC,[3],1 µg/mL
same,Activity,[6],1.3 µmol
same,MIC,[4],0.5 µg/mL
CC1(C)S[C@@H]2[C@H](NC(=O)Cc3ccccc3)C(=O)N2[C@H]1C(=O)O [PENICILLIN G],MIC,[3],128 µg/mL
same,MIC,[4],128 µg/mL
Metallo-beta-lactamase VIM-11 (Pseudomonas aeruginosa) (from UniProt C7DTR7),kcat/Km,[7],1.8 ×10⁶ /M/s
same,kcat/Km,[8],4.9 ×10⁶ /M/s
same,kcat/Km,[9],5.6 ×10⁶ /M/s
same,kcat/Km,[10],1.6 ×10⁶ /M/s
same,kcat/Km,[11],8.6 ×10⁶ /M/s
same,kcat/Km,[12],1.8 ×10⁶ /M/s
same,kcat/Km,[13],3.6 ×10⁶ /M/s
same,kcat/Km,[14],1.3 ×10⁶ /M/s
same,kcat/Km,[15],1.4 ×10⁶ /M/s
same,Km,[16],109 µM
same,kcat,[16],190 s⁻¹
same,Km,[17],5.5 µM
same,kcat,[17],27 s⁻¹
same,Km,[18],183 µM
same,kcat,[18],102 s⁻¹
same,Km,[19],8.2 µM
same,kcat,[19],129 s⁻¹
same,Km,[20],7.4 µM
same,kcat,[20],6.4 s⁻¹
same,Km,[21],4.5 µM
same,kcat,[21],81 s⁻¹
same,Km,[22],11.4 µM
same,kcat,[22],41.3 s⁻¹
same,Km,[23],110 µM
same,kcat,[23],14 s⁻¹
same,Km,[24],22.7 µM
same,kcat,[24],3.2 s⁻¹
C[C@@H](O)[C@H]1C(=O)N2C(C(=O)O)=C(S[C@@H]3CN[C@H](C(=O)N(C)C)C3)[C@H](C)[C@H]12 [MEROPENEM],MIC,[1],0.03 µg/mL
same,kcat/Km ratio,[2],1
same,MIC,[3],0.125 µg/mL
same,MIC,[4],0.06 µg/mL
C[C@H]1[C@H](NC(=O)/C(=N\OC(C)(C)C(=O)O)c2csc(N)n2)C(=O)N1S(=O)(=O)O [AZTREONAM],MIC,[3],0.5 µg/mL
same,MIC,[4],0.5 µg/mL
Metallo-beta-lactamase VIM-2 (Pseudomonas aeruginosa) (from UniProt D1MEN9),kcat/Km,[25],2.2 ×10⁶ /M/s
same,kcat/Km,[26],5.5 ×10⁶ /M/s
same,kcat/Km,[27],1.5 ×10⁶ /M/s
same,kcat/Km,[28],1 ×10⁶ /M/s
same,kcat/Km,[29],1.6 ×10⁶ /M/s
same,kcat/Km,[30],4.6 ×10⁶ /M/s
same,kcat/Km,[31],3.2 ×10⁶ /M/s
same,kcat/Km,[32],1.4 ×10⁶ /M/s
same,Km,[33],136 µM
same,Km,[34],5.5 µM
same,kcat,[34],30.5 s⁻¹
same,Km,[35],171 µM
same,kcat,[35],48.1 s⁻¹
same,Km,[36],13.8 µM
same,kcat,[36],206 s⁻¹
same,kcat,[37],10 s⁻¹
same,Km,[38],6.2 µM
same,kcat,[38],96.4 s⁻¹
same,Km,[39],13.4 µM
same,kcat,[39],61 s⁻¹
same,Km,[40],88.2 µM
same,Km,[41],24.5 µM
same,kcat,[41],3.5 s⁻¹
CO[C@@]1(NC(=O)Cc2cccs2)C(=O)N2C(C(=O)O)=C(COC(N)=O)CS[C@@H]21 [CEFOXITIN],MIC,[1],4 µg/mL
same,kcat/Km ratio,[2],0.86
same,MIC,[3],64 µg/mL
same,MIC,[4],32 µg/mL
CO/N=C(\C(=O)N[C@@H]1C(=O)N2C(C(=O)O)=C(COC(N)=O)CS[C@H]12)c1ccco1 [CEFUROXIME],MIC,[1],4 µg/mL
same,kcat/Km ratio,[2],0.89
same,MIC,[3],128 µg/mL
same,MIC,[4],64 µg/mL
CC(=O)OCC1=C(C(=O)O)N2C(=O)[C@@H](NC(=O)Cc3cccs3)[C@H]2SC1 [CEPHALOTHIN],Activity,[5],141 µmol
same,MIC,[1],4 µg/mL
same,kcat/Km ratio,[2],1.12
same,MIC,[3],64 µg/mL
same,Activity,[6],5.4 µmol
same,MIC,[4],64 µg/mL
CO/N=C(\C(=O)N[C@@H]1C(=O)N2C(C(=O)[O-])=C(C[N+]3(C)CCCC3)CS[C@H]12)c1csc(N)n1,kcat/Km ratio,[2],2.9
same,MIC,[3],0.5 µg/mL
same,MIC,[4],0.5 µg/mL
CO/N=C(\C(=O)N[C@@H]1C(=O)N2C(C(=O)[O-])=C(C[n+]3cccc4c3CCC4)CS[C@H]12)c1csc(N)n1 [CEFPIROME],MIC,[1],0.015 µg/mL
same,kcat/Km ratio,[2],2
same,MIC,[3],0.25 µg/mL
same,MIC,[4],0.5 µg/mL
CC(C)(O/N=C(\C(=O)N[C@@H]1C(=O)N2C(C(=O)[O-])=C(C[n+]3ccccc3)CS[C@H]12)c1csc(N)n1)C(=O)O [CEFTAZIDIME],Activity,[5],5.5 µmol
same,MIC,[1],0.125 µg/mL
same,kcat/Km ratio,[2],4.06
same,MIC,[3],8 µg/mL
same,Activity,[6],0.9 µmol
same,MIC,[4],8 µg/mL

# Reference: ChEMBL document CHEMBL1255351, “Biochemical characterization of metallo-beta-lactamase VIM-11 from a Pseudomonas aeruginosa clinical strain” (2008)
